The values below come from publication PMC7053999, “ParB spreading on DNA requires cytidine triphosphate in vitro” (eLife, 2020).

For series [1], the target named is T1, TetR (class B, from Tn10) (Escherichia coli, UniProt P04483).
T1 construct: C-terminal His6 (pET21b), E. coli Rosetta (DE3)
Briefly: BLI, release of TetR roadblock from tetO DNA. As to conditions: 3 uM ahTc, 1 uM TetR, 1 uM ParB, 1 mM CTP, 170 bp closed parS-tetO DNA, Mg2+, 22 °C. The series is classed as binding. Background: In BLI a coated tip is dipped into the sample, and binding shifts an interference pattern.

The target in series [2] is T2, Caulobacter ParB (Caulobacter vibrioides, UniProt B8GW30, Q35C/C297S).
T2 construct: full-length, C-terminal His6 (pET21b), E. coli Rosetta (DE3), dimer
T2 sequence (B8GW30 whole entry Q35C/C297S): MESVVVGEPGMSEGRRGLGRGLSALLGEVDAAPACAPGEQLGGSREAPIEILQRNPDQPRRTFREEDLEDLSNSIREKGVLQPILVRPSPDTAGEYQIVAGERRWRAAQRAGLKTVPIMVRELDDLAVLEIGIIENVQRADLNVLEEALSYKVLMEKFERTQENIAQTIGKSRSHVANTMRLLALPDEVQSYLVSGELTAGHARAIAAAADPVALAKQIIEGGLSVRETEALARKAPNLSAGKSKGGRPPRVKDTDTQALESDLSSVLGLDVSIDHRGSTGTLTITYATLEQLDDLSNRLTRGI
The series can be described thus: BMOE cross-linking of N-terminal domains, SDS-PAGE. Type of series: binding. The conditions noted are these: 1 mM CTP, 10 uM ParB, no parS DNA, Mg2+, pH 7.4, room temperature.

Series [3] has as its target T3, Caulobacter ParB (Caulobacter vibrioides, UniProt B8GW30, C297S).
T3 construct: full-length, C-terminal His6 (pET21b), E. coli Rosetta (DE3), dimer
Briefly: BLI, ParB accumulation on closed […] bp parS DNA. Type of series: biochemical. As to conditions: 1 mM CTP, 1 uM ParB, Mg2+, pH 8.0, 22 °C; legend prints C97S in one place.

Series [4] has as its target T4, Zymomonas mobilis ParB (Zymomonas mobilis, UniProt F8ETX3).
T4 construct: N-terminal His6-MBP (TEV) tag kept, E. coli Rosetta (DE3); chromosomal ParB
T4 sequence (F8ETX3 1-311): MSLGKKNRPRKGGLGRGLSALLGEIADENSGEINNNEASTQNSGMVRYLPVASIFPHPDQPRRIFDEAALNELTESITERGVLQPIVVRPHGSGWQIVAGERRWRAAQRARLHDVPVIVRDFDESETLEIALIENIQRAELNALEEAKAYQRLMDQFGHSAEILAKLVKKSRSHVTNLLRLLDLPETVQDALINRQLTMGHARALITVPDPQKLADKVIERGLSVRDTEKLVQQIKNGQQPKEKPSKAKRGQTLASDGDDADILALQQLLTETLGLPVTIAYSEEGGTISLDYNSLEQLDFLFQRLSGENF
Briefly: BLI, ParB accumulation on closed […] bp parS DNA. The series is classed as biochemical. As to conditions: 0.01 mM CTP, 1 uM ParB, Mg2+, pH 8.0, 22 °C.

Series [5] concerns the target T5, Caulobacter ParB (Caulobacter vibrioides, UniProt B8GW30).
T5 construct: full-length, C-terminal His6 (pET21b), E. coli Rosetta (DE3), dimer
Briefly: DRaCALA membrane-spotting with radiolabelled CTP. The series is classed as binding. The conditions noted are these: 22 bp parS DNA needed, Mg2+, pH 8.0, room temperature; labelled compound.

In series [6] the target is T6, Xanthomonas campestris ParB (Xanthomonas campestris, UniProt Q8P466).
T6 construct: N-terminal His6-MBP (TEV) tag kept, E. coli Rosetta (DE3); chromosomal ParB
T6 sequence (Q8P466 1-309): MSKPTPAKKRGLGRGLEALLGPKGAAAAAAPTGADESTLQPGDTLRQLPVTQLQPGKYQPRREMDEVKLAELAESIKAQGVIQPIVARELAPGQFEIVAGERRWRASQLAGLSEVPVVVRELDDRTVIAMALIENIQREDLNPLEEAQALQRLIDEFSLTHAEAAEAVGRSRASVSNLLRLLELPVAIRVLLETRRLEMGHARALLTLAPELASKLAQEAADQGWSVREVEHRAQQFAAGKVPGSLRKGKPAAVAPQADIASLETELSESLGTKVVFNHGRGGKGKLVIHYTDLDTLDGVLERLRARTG
The series can be described thus: BLI, ParB accumulation on closed […] bp parS DNA. Type of series: biochemical. The conditions noted are these: 0.01 mM CTP, 1 uM ParB, Mg2+, pH 8.0, 22 °C.

Series [7] addresses T7, Caulobacter ParB-His6 (WT) (Caulobacter crescentus, UniProt B8GW30 1-304).
T7 sequence: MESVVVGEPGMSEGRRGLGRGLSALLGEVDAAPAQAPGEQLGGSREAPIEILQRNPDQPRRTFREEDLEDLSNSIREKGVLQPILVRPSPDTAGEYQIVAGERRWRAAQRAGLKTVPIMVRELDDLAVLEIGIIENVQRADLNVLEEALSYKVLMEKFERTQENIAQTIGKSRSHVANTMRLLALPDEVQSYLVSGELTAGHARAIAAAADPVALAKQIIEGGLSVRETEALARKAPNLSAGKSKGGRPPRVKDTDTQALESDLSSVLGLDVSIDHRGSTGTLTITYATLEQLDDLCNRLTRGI
Briefly: BLI; ParB-CTP prebound; dissociation in 1 mM CTP, Mg2+; BLI at 22 C: 100 mM Tris-HCl pH 8.0, 100 mM NaCl, 1 mM MgCl2, 0.005% Tween 20; 1 uM protein dimer. Pull-down: same buffer, room temperature, 5 min, 1 uM ParB, 1 mM NTP. The conditions noted are these: protein: recombinant; tags: C-terminal His6; chain copies: 2; label: biotin at both 5' ends; blunt; both ends tethered (closed); polymerase may add 3' A.

The target in series [8] is T7, Caulobacter ParB-His6 (WT). Briefly: BLI; 1 mM CTP, Mg2+; BLI at 22 C: 100 mM Tris-HCl pH 8.0, 100 mM NaCl, 1 mM MgCl2, 0.005% Tween 20; 1 uM protein dimer. Pull-down: same buffer, room temperature, 5 min, 1 uM ParB, 1 mM NTP. As to conditions: protein: recombinant; tags: C-terminal His6; chain copies: 2; label: biotin at both 5' ends; blunt; both ends tethered (closed); polymerase may add 3' A.

Series [9] deals with T7, Caulobacter ParB-His6 (WT). The series can be described thus: BLI; 1 mM CTP, Mg2+ (no increase in response); BLI at 22 C: 100 mM Tris-HCl pH 8.0, 100 mM NaCl, 1 mM MgCl2, 0.005% Tween 20; 1 uM protein dimer. Pull-down: same buffer, room temperature, 5 min, 1 uM ParB, 1 mM NTP. As to conditions: protein: recombinant; tags: C-terminal His6; chain copies: 2; label: biotin at both 5' ends; blunt; both ends tethered (closed); polymerase may add 3' A.

The target of series [10] is T7, Caulobacter ParB-His6 (WT). The series can be described thus: BLI; 1 mM CDP, Mg2+; BLI at 22 C: 100 mM Tris-HCl pH 8.0, 100 mM NaCl, 1 mM MgCl2, 0.005% Tween 20; 1 uM protein dimer. Pull-down: same buffer, room temperature, 5 min, 1 uM ParB, 1 mM NTP. The conditions noted are these: protein: recombinant; tags: C-terminal His6; chain copies: 2; label: 5' biotin on strand 1; blunt.

The target of series [11] is T8, TetR-His6 (class B, from Tn10) (Tn10, UniProt P04483 1-207). Briefly: BLI; 0.125-2 uM TetR, no NTP; BLI at 22 C: 100 mM Tris-HCl pH 8.0, 100 mM NaCl, 1 mM MgCl2, 0.005% Tween 20; 1 uM protein dimer. Pull-down: same buffer, room temperature, 5 min, 1 uM ParB, 1 mM NTP. The conditions noted are these: protein: recombinant; tags: C-terminal His6; chain copies: 2; label: 5' biotin on strand 1; blunt.
T8 sequence (P04483 whole entry): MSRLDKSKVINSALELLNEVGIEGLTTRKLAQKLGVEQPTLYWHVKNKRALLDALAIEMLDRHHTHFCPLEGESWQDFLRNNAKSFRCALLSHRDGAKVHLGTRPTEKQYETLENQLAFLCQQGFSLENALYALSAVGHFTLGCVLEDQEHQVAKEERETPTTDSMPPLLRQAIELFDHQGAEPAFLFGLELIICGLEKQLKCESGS

Series [12] deals with the molecule itself. Briefly: cross-linking; 10 µM ParB (Q35C C297S) ± 1 mM NTP (CTP, CTPγS or other NTPs) ± 0.5 µM 22 bp parS dsDNA in 10 mM Tris-HCl pH 7.4, 100 mM NaCl, 1 mM MgCl2, room temperature, 15 min or 1-30 min time course, then 1 mM BMOE; SDS-PAGE, InstantBlue stain.
For series [13], the target named is T7, Caulobacter ParB-His6 (WT). Briefly: BLI; 0.125-2 uM ParB, no NTP; BLI at 22 C: 100 mM Tris-HCl pH 8.0, 100 mM NaCl, 1 mM MgCl2, 0.005% Tween 20; 1 uM protein dimer. Pull-down: same buffer, room temperature, 5 min, 1 uM ParB, 1 mM NTP. The conditions noted are these: protein: recombinant; tags: C-terminal His6; chain copies: 2; label: 5' biotin on strand 1; blunt.

Series [14] concerns the target T8, TetR-His6 (class B, from Tn10). Briefly: BLI; no NTP, Mg2+; BLI at 22 C: 100 mM Tris-HCl pH 8.0, 100 mM NaCl, 1 mM MgCl2, 0.005% Tween 20; 1 uM protein dimer. Pull-down: same buffer, room temperature, 5 min, 1 uM ParB, 1 mM NTP. As to conditions: protein: recombinant; tags: C-terminal His6; chain copies: 2; label: 5' biotin on strand 1; blunt.
Series [15] concerns the target T7, Caulobacter ParB-His6 (WT). Briefly: BLI; 1 mM CTP (enhanced); BLI at 22 C: 100 mM Tris-HCl pH 8.0, 100 mM NaCl, 1 mM MgCl2, 0.005% Tween 20; 1 uM protein dimer. Pull-down: same buffer, room temperature, 5 min, 1 uM ParB, 1 mM NTP. As to conditions: protein: recombinant; tags: C-terminal His6; chain copies: 2; label: biotin at both 5' ends; blunt; both ends tethered (closed); polymerase may add 3' A.

Where a chain is given by its changes, count along the chain named. In names and notes the source's numbering stands.

T1 sequence (P04483 whole entry): as above
T3 sequence (B8GW30 whole entry C297S): as the sequence (B8GW30 whole entry Q35C/C297S) above, with C35Q counted along it

Take `Cc1c2c(c(O)c3c(O)cccc13)C(=O)[C@]1(O)C(=O)C(C(N)=O)=C(O)[C@@H](N(C)C)[C@@H]1C2` [Anhydrotetracycline]: in [1], the “BLI, release of TetR roadblock from tetO DNA” value is given as “addition of anhydrotetracycline (ahTc), a negative effector of TetR”. For the molecule `Nc1ccn([C@@H]2O[C@H](COP(=O)(O)OP(=O)(O)OP(=O)(O)O)[C@@H](O)[C@H]2O)c(=O)n1` [CTP], the “BMOE cross-linking of N-terminal domains, SDS-PAGE” value in series [2] is “cross-linking of ParB (Q35C C297S) was also enhanced by CTP and CTPγS”. Moreover, the “BLI, ParB accumulation on closed 169 bp parS DNA” value was “Both ParB (C297S) and ParB (Q35C C297S) were competent at spreading” in series [3]; “CTP facilitates the association of eight ParB orthologs with DNA” in series [4]; “CTP facilitates the association of eight ParB orthologs with DNA” in series [6]. Further, in series [5], the “DRaCALA membrane-spotting with radiolabelled CTP” value is “Caulobacter ParB binds to radiolabeled CTP in the presence of parS DNA”.

B1: 169 bp parS closed DNA (dsDNA)
DNA 1: CGCCAGGGTTTTCCCAGTCACGACGTTGTAAAACGACGGCCAGTGAATTCGAGCTCGGTACCCGCAGGAGGACGTAGGGTAGGGGGATGTTTCACGTGAAACAGGGGATCCTCTAGAGTCGACCTGCAGGCATGCAAGCTTGGCGTAATCATGGTCATAGCTGTTTCCT
DNA 2: AGGAAACAGCTATGACCATGATTACGCCAAGCTTGCATGCCTGCAGGTCGACTCTAGAGGATCCCCTGTTTCACGTGAAACATCCCCCTACCCTACGTCCTCCTGCGGGTACCGAGCTCGAATTCACTGGCCGTCGTTTTACAACGTCGTGACTGGGAAAACCCTGGCG
For the molecule B1, the binding signal is ~5 fold slower dissociation vs buffer without CTP in series [7] and ~12 fold BLI response vs no NTP in series [8].

B2: 169 bp scrambled parS closed DNA (dsDNA)
DNA 1: B1 DNA 1 with T88A, G89A, T92A, G96T, T97G, G98A, A99G, A100T, A101T, C102T
DNA 2: B1 DNA 2 with G68A, T69A, T70A, T71C, C72T, A73C, C74A, A78T, C81T, A82T
Turning to B2, the binding result in series [9] is “no binding”.

B3: 20 bp parS (dsDNA)
DNA 1: GGGATGTTTCACGTGAAACA
DNA 2: TGTTTCACGTGAAACATCCC
Turning to B3, the binding result is listed as “binds” in [10] and “no binding” in [11].

B4: Caulobacter ParB-His6 (Q35C C297S) (natural protein, Caulobacter crescentus, UniProt P0CAV8 1-304, looked up)
chain: T7 sequence with Q35C, C297S
notes: ParB, chromosome partitioning protein of Caulobacter crescentus; the cross-link reports engagement of the N-terminal domains of two subunits; The lone native cysteine C297 was changed to serine and Q35C was engineered in the N-terminal domain; Cloning in pET21b may add linker residues before the His6 tag (surmised); also called ParB (Q35C C297S); ParB (C297S Q35C); not shown: His6, C-terminal, …
As to B4, the binding result in series [12] is recorded as “binds”.

B5: 28 bp tetO (dsDNA)
DNA 1: GGGGACTCTATCATTGATAGAGTATGC
DNA 2: GCATACTCTATCAATGATAGAGTCCCC
As to B5, the binding result in [13] was “no binding”; in series [14], “binds”.

B6: 170 bp parS-tetO closed DNA (dsDNA)
DNA 1: CGCCAGGGTTTTCCCAGTCACGACGTTGTAAAACGACGGCCAGAATTCGCAACGTGTGTTTCACGTGAAACAGCCTTGAACTGATAACGACTCTATCATTGATAGAGTGTTCTCTCCACGGGATCCCCAGGCATGCAAGCTTGGCGTAATCATGGTCATAGCTGTTTCCT
DNA 2: AGGAAACAGCTATGACCATGATTACGCCAAGCTTGCATGCCTGGGGATCCCGTGGAGAGAACACTCTATCAATGATAGAGTCGTTATCAGTTCAAGGCTGTTTCACGTGAAACACACGTTGCGAATTCTGGCCGTCGTTTTACAACGTCGTGACTGGGAAAACCCTGGCG
As for B6, the binding result in series [15] is “binds”.
